# Test results published in patent publication US9175282B2, “Cellobiose 2-epimerase, its preparation and uses” (HAYASHIBARA CO., LTD., priority 2009, dated 2015).
# Entries after “also recorded” stand apart in the source; their conditions may differ.
# B1: cellobiose 2-epimerase of the present invention: thermostable cellobiose 2-epimerase of Caldicellusiruptor saccharolyticus ATCC43494, amino acid sequence of SEQ ID NO:10 with 390 residues (protein, listed as Caldicellulosiruptor saccharolyticus)
# chain: MDITRFKEDLKAHLEEKIIPFWQSLKDDEFGGYYGYMDFNLNIDRKAQKGCILNSRILWFFSACYNVLKSEKCKEMAFHAFEFLKNKFWDKEYEGLFWSVSHKGVPVDVTKHVYVQAFGIYGLSEYYEASGDEEALHMAKRLFEILETKCKRENGYTEQFERNWQEKENRFLSENGVIASKTMNTHLHVLESYTNLYRLLKLDDVYEALEWIVRLFVDKIYKKGTGHFKVFCDDNWNELIKAVSYGHDIEASWLLDQAAKYLKDEKLKEEVEKLALEVAQITLKEAFDGQSLINEMIEDRIDRSKIWWVEAETVVGFFNAYQKTKEEKYLDAAIKTWEFIKEHLVDRRKNSEWLWKVNEDLEAVNMPIVEQWKCPYHNGRMCLEIIKRVD
# B2: recombinant epimerase: cellobiose 2-epimerase expressed in E. coli transformant ETCS1 and purified by heat treatment and chromatography (protein, listed as Caldicellulosiruptor saccharolyticus)
# chain: B1 chain
# Key:
# [1] = test system: cellobiose 2-epimerase; experiment: Effect of metal ions on the epimerase activity; assay type: biochemical, Caldicellusiruptor saccharolyticus ATCC43494; details: ions that inhibit the enzyme; listed as Caldicellulosiruptor saccharolyticus ATCC43494
# [2] = Lactose 2-epimerase activity of enzyme preparations; assay type: biochemical; details: purified enzyme
# Procedure: Through the specification of the present invention, the activity of the cellobiose 2-epimerase was determined as a lactose 2-epimerase activity, which catalyzes epimerization of lactose to form epilactose, using lactose as the substrate obtainable in highly purified form at low cost. The lactose 2-epimerase activity was measured as follows. To 1,000 μl of substrate solution, which contains lactose to give a final concentration of 35.1 mM and acetate buffer (pH 6.0) to give a final concentration of 20 mM of the reaction solution, 200 μl of a enzyme solution was added to give a 1,200 μl of the reaction solution, followed by reaction at 50° C. for 20 minutes. The reaction was stopped by heating for 10 minutes in a boiling water bath. Then reaction mixture was subjected to HPLC chromatography to determine the amount of epilactose produced by the reaction. The HPLC chromatography was conducted at the following conditions; […]
# Then, each seed culture broth was inoculated into 10 L of the same medium eight each in eight 11-L pressure steel bottles and cultured. […] The epimerase activity of the crude enzyme was determined to be 0.009 Unit/ml.
# The enzyme preparation purified by the above process contained 0.9 mg protein, and its activity yield was 3.4% from the crude enzyme. […] The amount of protein was measured by Lowry method using bovine serum albumin as standard.
# [3] = Optimum temperature and optimum pH of epimerase activity; assay type: biochemical; details: for Optimum pH: reacted at 50° C. for 20 minutes; for Optimum temperature: reacted at pH 6.0 for 20 minutes
# Procedure: Through the specification of the present invention, the activity of the cellobiose 2-epimerase was determined as a lactose 2-epimerase activity, which catalyzes epimerization of lactose to form epilactose, using lactose as the substrate obtainable in highly purified form at low cost. The lactose 2-epimerase activity was measured as follows. To 1,000 μl of substrate solution, which contains lactose to give a final concentration of 35.1 mM and acetate buffer (pH 6.0) to give a final concentration of 20 mM of the reaction solution, 200 μl of a enzyme solution was added to give a 1,200 μl of the reaction solution, followed by reaction at 50° C. for 20 minutes. The reaction was stopped by heating for 10 minutes in a boiling water bath. Then reaction mixture was subjected to HPLC chromatography to determine the amount of epilactose produced by the reaction. The HPLC chromatography was conducted at the following conditions;
# Using the purified cellobiose 2-epimerase preparation obtained by the method of Experiment 2, effects of temperature and pH on the epimerase activity were investigated according to the method of assaying the activity. The results were in FIG. 3 (optimum temperature) and FIG. 4 (optimum pH). The optimum temperature of the enzyme is 80° C. when reacted at pH 6.0 for 20 minutes. The optimum pH of the enzyme is 7.8 when reacted at 50° C. for 20 minutes.
# [4] = Substrate specificities of the cellobiose 2-epimerase (summary Table 6); assay type: biochemical; details: listed as Caldicellulosiruptor saccharolyticus ATCC43494
# Procedure: Reaction products formed from D-glucose, D-galactose, and D-mannose by the action of the cellobiose 2-epimerase of the present invention were investigated. D-Glucose, D-galactose, or D-mannose was dissolved into 50 mM acetate buffer (pH 6.0) to give a final concentration of 20% (w/v) to make into a substrate solution. To 0.1 ml of the substrate solution, 130 units/g-solid substrate for D-glucose and D-mannose (0.1 ml as the enzyme solution), or 500 units/g-solid substrate for D-galactose (0.1 ml as the enzyme solution), of the purified preparation of the recombinant cellobiose 2-epimerase, obtained by the method in Experiment 4-4, was admixed; and followed the enzyme reaction at 60° C. for 48 hours.
# Each of them was dissolved into 20 mM acetate buffer (pH 6.0), admixed with the purified preparation of the recombinant cellobiose 2-epimerase, obtained by the method in Experiment 4-4, and followed the enzyme reaction under the conditions of 10% (w/v) substrate concentration, 60° C. for 72 hours. The amount of enzyme was set to 130 or 500 units/g-substrate when monosaccharide was used as the substrate, and to 1 or 130 units/g-substrate when disaccharide or trisaccharide was used as the substrate. Each reaction mixture was heated at 100° C. for 10 minutes to stop the reaction and subjected to HPLC analysis to determine the contents of isomerized saccharide, on a dry solid basis. The contents of epilactose and lactulose in the reaction mixture obtained using lactose as substrate were determined by GC analysis described in Experiment 1-2.
# The physicochemical properties and substrate specificities of the cellobiose 2-epimerase from Caldicellulosiruptor saccharolyticus ATCC43494, obtained from above experiments, were shown in Table 6 together with those of conventional cellobiose 2-epimerases from Ruminococcus albus (excerpted from Non-Patent Document 3) and Eubacterium cellosolvens (excerpted from Non-Patent Document 4).
# [5] = Thermostability and pH stability (residual activity); details: incubated at pH 6.0 for 60 minutes
# Procedure: The thermostability was determined as the residual activity of the enzyme, after incubated at given temperatures for 60 minutes in 10 mM acetate buffer (pH 6.0) followed by being cooled in cold water.
Molecule,Inhibition by metal ions [1],Specific activity [2],Optimum pH [3],Optimum temperature [3],Optimum temperature ([3]; listed as Caldicellulosiruptor saccharolyticus ATCC43494),Optimum temperature ([3]; listed as purified cellobiose 2-epimerase preparation),Substrate specificity: Cellobiose ([4]; substrate Cellobiose),Substrate specificity: D-Galactose ([4]; substrate D-Galactose),Substrate specificity: D-Glucose ([4]; substrate D-Glucose),Substrate specificity: D-Mannose ([4]; substrate D-Mannose),Substrate specificity: Lactose ([4]; substrate Lactose),Substrate specificity: Maltose ([4]; substrate Maltose),Thermostability (stable up to) [5]
B1,"Al^3+, Fe^2+, Fe^3+,; also recorded: Pb^2+, Cu^2+, Zn^2+,; also recorded: Hg^2+",26.9 unit/mg-protein,7.8,80 °C,80 °C,80 °C,epicellobiose,Forming D-talose,Forming D-mannose,Forming D-glucose,Forming epilactose,Forming epimaltose,
B2,,,about 7.8,about 80 °C,,,,,,,,,up to 70 °C
